Laboratory results published in patent US20120034160A1 (AbbVie / Abbott, published 2012).
Residue numbers refer to the chain shown, from its start.

T1: Recombinant Human IL-17 (human, UniProt Q16552 20-155, limits assumed)
T1 sequence (looked up): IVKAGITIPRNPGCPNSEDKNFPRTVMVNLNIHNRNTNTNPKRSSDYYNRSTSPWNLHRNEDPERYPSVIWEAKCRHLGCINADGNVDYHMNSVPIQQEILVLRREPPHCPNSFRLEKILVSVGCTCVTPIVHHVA

B1: DVD1262 (bispecific antibody, human IgG1, kappa)
heavy: not shown
light: DIQMTQSPSSLSASVGDRVTITCRASGNIHNYLTWYQQTPGKAPKLLIYNAKTLADGVPSRFSGSGSGTDYTFTISSLQPEDIATYYCQHFWSIPYTFGQGTKLQITRTVAAPDIQMTQSPSSLSASVGDRVTITCRASSGIISYIDWFQQKPGKAPKRLIYATFDLASGVPSRFSGSGSGTDYTLTISSLQPEDFATYYCRQVGSYPETFGQGTKLEIKRTVAAPSVFIFPPSDEQLKSGTASVVCLLNNFYPREAKVQWKVDNALQSGNSQESVTEQDSKDSTYSLSSTLTLSKADYEKHKVYACEVTHQGLSSPVTKSFNRGEC
B2: DVD1264 (bispecific antibody, human IgG1, kappa)
heavy: not shown
light: B1 light
B3: DVD1273 (bispecific antibody, human IgG1, kappa)
heavy: not shown
light: EIVLTQSPDFQSVTPKEKVTITCRASQDIGSELHWYQQKPDQPPKLLIKYASHSTSGVPSRFSGSGSGTDFTLTINGLEAEDAGTYYCHQTDSLPYTFGPGTKVDIKRTVAAPDIQMTQSPSSLSASVGDRVTITCRASGNIHNYLTWYQQTPGKAPKLLIYNAKTLADGVPSRFSGSGSGTDYTFTISSLQPEDIATYYCQHFWSIPYTFGQGTKLQITRTVAAPSVFIFPPSDEQLKSGTASVVCLLNNFYPREAKVQWKVDNALQSGNSQESVTEQDSKDSTYSLSSTLTLSKADYEKHKVYACEVTHQGLSSPVTKSFNRGEC
B4: DVD1275 (bispecific antibody, human IgG1, kappa)
heavy: not shown
light: B3 light
B5: DVD1268 (bispecific antibody, human IgG1, kappa)
heavy: not shown
light: DTVVTQSPAFLSVTPGEKVTITCITSTDIDVDMNWYQQKPDQPPKLLISQGNTLRPGVPSRFSSSGSGTDFTFTISSLEAEDAATYYCLQSDNLPLTFGQGTKLEIKRTVAAPDIQMTQSPSSLSASVGDRVTITCRASSGIISYIDWFQQKPGKAPKRLIYATFDLASGVPSRFSGSGSGTDYTLTISSLQPEDFATYYCRQVGSYPETFGQGTKLEIKRTVAAPSVFIFPPSDEQLKSGTASVVCLLNNFYPREAKVQWKVDNALQSGNSQESVTEQDSKDSTYSLSSTLTLSKADYEKHKVYACEVTHQGLSSPVTKSFNRGEC
B6: DVD1266 (bispecific antibody, human IgG1, kappa)
heavy: not shown
light: DTQVTQSPSSLSASVGDRVTITCITSTDIDVDMNWYQQKPGKPPKLLISQGNTLRPGVPSRFSSSGSGTDFTFTISSLQPEDFATYYCLQSDNLPLTFGQGTKLEIKRTVAAPDIQMTQSPSSLSASVGDRVTITCRASSGIISYIDWFQQKPGKAPKRLIYATFDLASGVPSRFSGSGSGTDYTLTISSLQPEDFATYYCRQVGSYPETFGQGTKLEIKRTVAAPSVFIFPPSDEQLKSGTASVVCLLNNFYPREAKVQWKVDNALQSGNSQESVTEQDSKDSTYSLSSTLTLSKADYEKHKVYACEVTHQGLSSPVTKSFNRGEC
B7: DVD1270 (bispecific antibody, human IgG1, kappa)
heavy: not shown
light: B6 light with D1E, Q3T
B8: DVD1269 (bispecific antibody, human IgG1, kappa)
heavy: not shown
light: DIQMTQSPSSLSASVGDRVTITCRASSGIISYIDWFQQKPGKAPKRLIYATFDLASGVPSRFSGSGSGTDYTLTISSLQPEDFATYYCRQVGSYPETFGQGTKLEIKRTVAAPDTVVTQSPAFLSVTPGEKVTITCITSTDIDVDMNWYQQKPDQPPKLLISQGNTLRPGVPSRFSSSGSGTDFTFTISSLEAEDAATYYCLQSDNLPLTFGQGTKLEIKRTVAAPSVFIFPPSDEQLKSGTASVVCLLNNFYPREAKVQWKVDNALQSGNSQESVTEQDSKDSTYSLSSTLTLSKADYEKHKVYACEVTHQGLSSPVTKSFNRGEC
B9: DVD1267 (bispecific antibody, human IgG1, kappa)
heavy: not shown
light: DIQMTQSPSSLSASVGDRVTITCRASSGIISYIDWFQQKPGKAPKRLIYATFDLASGVPSRFSGSGSGTDYTLTISSLQPEDFATYYCRQVGSYPETFGQGTKLEIKRTVAAPDTQVTQSPSSLSASVGDRVTITCITSTDIDVDMNWYQQKPGKPPKLLISQGNTLRPGVPSRFSSSGSGTDFTFTISSLQPEDFATYYCLQSDNLPLTFGQGTKLEIKRTVAAPSVFIFPPSDEQLKSGTASVVCLLNNFYPREAKVQWKVDNALQSGNSQESVTEQDSKDSTYSLSSTLTLSKADYEKHKVYACEVTHQGLSSPVTKSFNRGEC
B10: DVD1271 (bispecific antibody, human IgG1, kappa)
heavy: not shown
light: B9 light with D114E, Q116T
B11: DVD1276 (bispecific antibody, human IgG1, kappa)
heavy: not shown
light: DTQVTQSPSSLSASVGDRVTITCITSTDIDVDMNWYQQKPGKPPKLLISQGNTLRPGVPSRFSSSGSGTDFTFTISSLQPEDFATYYCLQSDNLPLTFGQGTKLEIKRTVAAPEIVLTQSPDFQSVTPKEKVTITCRASQDIGSELHWYQQKPDQPPKLLIKYASHSTSGVPSRFSGSGSGTDFTLTINGLEAEDAGTYYCHQTDSLPYTFGPGTKVDIKRTVAAPSVFIFPPSDEQLKSGTASVVCLLNNFYPREAKVQWKVDNALQSGNSQESVTEQDSKDSTYSLSSTLTLSKADYEKHKVYACEVTHQGLSSPVTKSFNRGEC
B12: DVD1263 (bispecific antibody, human IgG1, kappa)
heavy: not shown
light: DIQMTQSPSSLSASVGDRVTITCRASSGIISYIDWFQQKPGKAPKRLIYATFDLASGVPSRFSGSGSGTDYTLTISSLQPEDFATYYCRQVGSYPETFGQGTKLEIKRTVAAPDIQMTQSPSSLSASVGDRVTITCRASGNIHNYLTWYQQTPGKAPKLLIYNAKTLADGVPSRFSGSGSGTDYTFTISSLQPEDIATYYCQHFWSIPYTFGQGTKLQITRTVAAPSVFIFPPSDEQLKSGTASVVCLLNNFYPREAKVQWKVDNALQSGNSQESVTEQDSKDSTYSLSSTLTLSKADYEKHKVYACEVTHQGLSSPVTKSFNRGEC
B13: DVD1265 (bispecific antibody, human IgG1, kappa)
heavy: not shown
light: B12 light
B14: DVD1272 (bispecific antibody, human IgG1, kappa)
heavy: not shown
light: DIQMTQSPSSLSASVGDRVTITCRASGNIHNYLTWYQQTPGKAPKLLIYNAKTLADGVPSRFSGSGSGTDYTFTISSLQPEDIATYYCQHFWSIPYTFGQGTKLQITRTVAAPEIVLTQSPDFQSVTPKEKVTITCRASQDIGSELHWYQQKPDQPPKLLIKYASHSTSGVPSRFSGSGSGTDFTLTINGLEAEDAGTYYCHQTDSLPYTFGPGTKVDIKRTVAAPSVFIFPPSDEQLKSGTASVVCLLNNFYPREAKVQWKVDNALQSGNSQESVTEQDSKDSTYSLSSTLTLSKADYEKHKVYACEVTHQGLSSPVTKSFNRGEC
B15: DVD1274 (bispecific antibody, human IgG1, kappa)
heavy: not shown
light: B14 light

Each binder was assayed against T1, Recombinant Human IL-17 (assay: cell-based or functional assay).

C-terminal VD IL-17 Neutralization Assay EC50 [nM]	N-terminal VD IL-17 Neutralization Assay EC50 [nM]	Binder
0.0162	–	B1
0.0084	–	B2
–	0.0013	B3
–	0.0006	B4
0.0034	–	B5
0.015	–	B6
0.0407	–	B7
–	0.0082	B8
–	0.0109	B9
–	0.0109	B10
1.21	–	B11
–	0.0052	B12
–	0.0028	B13
0.346	–	B14
1.08	–	B15

Each binder was assayed against Recombinant Human IL-1β (human, UniProt P01584 117-269) (assay: cell-based or functional assay).

N-Terminal VD IL-1β Neutralization Assay EC50 [nM]	C-Terminal VD IL-1β Neutralization Assay EC50 [nM]	Binder
0.0164	–	B1
0.12	–	B2
–	18.4	B3
–	1.92	B4
0.146	–	B5
0.327	–	B6
0.265	–	B7
–	> 45	B8
–	> 40	B9
–	> 30	B10
0.168	–	B11
–	20	B12
–	0.925	B13
0.0139	–	B14
0.0068	–	B15
